Data taken from US20150056199A1.
Read-outs that look alike come from different tables or passages of the source.

Key:
Assay in all cases: cell-based or functional assay
[1] = molecular target: human GDF15 (hGDF15), mature, generated in-house in CHO cells (human) (UniProt Q99988)
[2] = molecular target: human TGFβ1 (PeproTech) (human) (UniProt P01137)
[3] = molecular target: human TGFβ3 (PeproTech) (human) (UniProt P10600)
[4] = molecular target: human TGFβ1 (PeproTech) (human) (UniProt P01137); remark: listed apart in the source
[5] = molecular target: human TGFβ3 (PeproTech) (human) (UniProt P10600); remark: listed apart in the source
[6] = molecular target: murine GDF15 (mGDF15), mature, generated in-house in CHO cells (mouse) (UniProt Q9Z0J7)
murine GDF15 (mGDF15), mature, generated in-house in CHO cells (mouse), sequence (Q9Z0J7 192-303): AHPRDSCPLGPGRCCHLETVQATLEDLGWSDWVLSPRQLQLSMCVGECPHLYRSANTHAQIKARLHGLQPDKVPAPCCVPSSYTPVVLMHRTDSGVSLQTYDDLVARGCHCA

hTβRIIshort(29-159)-hG2Fc (Fc fusion), sequence (chain): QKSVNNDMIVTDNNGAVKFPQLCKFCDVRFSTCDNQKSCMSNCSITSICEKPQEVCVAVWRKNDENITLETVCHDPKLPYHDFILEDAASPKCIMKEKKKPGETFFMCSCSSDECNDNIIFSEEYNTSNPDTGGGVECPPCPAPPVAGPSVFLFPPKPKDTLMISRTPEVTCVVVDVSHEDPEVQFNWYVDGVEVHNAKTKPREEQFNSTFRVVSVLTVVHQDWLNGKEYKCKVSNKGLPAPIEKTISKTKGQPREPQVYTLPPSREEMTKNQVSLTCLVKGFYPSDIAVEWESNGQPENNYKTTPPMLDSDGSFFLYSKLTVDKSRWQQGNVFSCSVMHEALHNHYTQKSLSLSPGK
hTβRIIshort(23-159)-hG2Fc (Fc fusion), sequence (chain): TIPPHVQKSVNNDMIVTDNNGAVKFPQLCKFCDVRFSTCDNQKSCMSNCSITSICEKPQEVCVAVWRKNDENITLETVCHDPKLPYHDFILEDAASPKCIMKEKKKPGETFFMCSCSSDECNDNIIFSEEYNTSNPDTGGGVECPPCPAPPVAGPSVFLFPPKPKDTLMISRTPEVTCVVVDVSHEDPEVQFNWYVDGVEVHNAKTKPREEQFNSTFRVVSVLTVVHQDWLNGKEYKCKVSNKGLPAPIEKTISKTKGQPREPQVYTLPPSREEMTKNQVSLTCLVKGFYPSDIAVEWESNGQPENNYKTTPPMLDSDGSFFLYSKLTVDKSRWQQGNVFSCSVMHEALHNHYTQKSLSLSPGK
human GDF15 (hGDF15), mature, generated in-house in CHO cells (human), sequence (Q99988 197-308): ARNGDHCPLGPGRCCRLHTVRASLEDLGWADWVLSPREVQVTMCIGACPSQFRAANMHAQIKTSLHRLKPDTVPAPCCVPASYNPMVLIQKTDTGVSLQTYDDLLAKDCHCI
human TGFβ3 (PeproTech) (human), sequence (P10600 301-412 limits assumed): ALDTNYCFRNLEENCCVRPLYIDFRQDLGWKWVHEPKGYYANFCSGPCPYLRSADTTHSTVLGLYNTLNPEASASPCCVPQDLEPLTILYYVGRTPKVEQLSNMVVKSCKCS
hTβRIIshort(23-153)-hG2Fc (Fc fusion), sequence (chain): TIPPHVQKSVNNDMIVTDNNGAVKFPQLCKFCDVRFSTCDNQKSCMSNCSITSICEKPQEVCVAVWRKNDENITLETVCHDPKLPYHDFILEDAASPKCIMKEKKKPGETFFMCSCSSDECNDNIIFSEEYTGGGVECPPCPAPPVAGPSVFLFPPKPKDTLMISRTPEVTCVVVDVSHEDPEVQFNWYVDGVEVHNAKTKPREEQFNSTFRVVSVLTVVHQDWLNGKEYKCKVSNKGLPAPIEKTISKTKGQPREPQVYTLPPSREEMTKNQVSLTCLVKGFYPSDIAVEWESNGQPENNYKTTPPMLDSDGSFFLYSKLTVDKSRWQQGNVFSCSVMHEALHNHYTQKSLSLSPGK
human TGFβ1 (PeproTech) (human), sequence (P01137 279-390 limits assumed): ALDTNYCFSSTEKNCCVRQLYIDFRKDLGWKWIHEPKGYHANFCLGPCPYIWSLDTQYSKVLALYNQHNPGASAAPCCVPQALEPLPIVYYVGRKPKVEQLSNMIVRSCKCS
hTβRIIshort(35-159)-hG2Fc (Fc fusion), sequence (chain): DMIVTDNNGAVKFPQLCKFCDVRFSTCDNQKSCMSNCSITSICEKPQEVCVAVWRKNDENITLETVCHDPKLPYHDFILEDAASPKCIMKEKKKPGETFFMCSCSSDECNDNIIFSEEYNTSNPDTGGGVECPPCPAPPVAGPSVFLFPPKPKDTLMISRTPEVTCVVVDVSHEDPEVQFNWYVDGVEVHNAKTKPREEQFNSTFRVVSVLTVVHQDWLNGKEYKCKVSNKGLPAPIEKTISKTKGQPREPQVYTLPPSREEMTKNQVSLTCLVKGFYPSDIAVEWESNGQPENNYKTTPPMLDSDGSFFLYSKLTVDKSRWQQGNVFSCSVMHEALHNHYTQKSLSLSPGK

| IC50 (nM), A549 CAGA-12 reporter gene assay, hGDF15 (70 ng/ml) [1] [nM] | IC50 (nM), A549 CAGA-12 reporter gene assay, hTGFβ1 (640 pg/ml) [2] [nM] | IC50 (nM), A549 CAGA-12 reporter gene assay, hTGFβ3 (270 pg/ml) [3] [nM] | IC50 (nM), A549 CAGA-12 reporter gene assay, hTGFβ1 (640 pg/ml) [4] [nM] | IC50 (nM), A549 CAGA-12 reporter gene assay, hTGFβ3 (270 pg/ml) [5] [nM] | IC50 (nM), A549 CAGA-12 reporter gene assay, mGDF15 (35 ng/ml) [6] [nM] | IC50 (nM), A549 CAGA-12 reporter gene assay, hGDF15 (70 or 112 ng/ml) [1] [nM] | Substance |
| --- | --- | --- | --- | --- | --- | --- | --- |
| 0.18 | 2.62 | 0.14 |  |  |  |  | hTβRIIshort(23-153)-hG2Fc (Fc fusion) |
| 2.42 | 17.7 |  |  |  |  |  | hTβRIIshort(23-153/N70D)-hG2Fc (Fc fusion) |
| 0.14 | 0.52 | 0.37 | 1.73 | 0.14 | 0.12 |  | hTβRIIshort(23-159)-hG2Fc (Fc fusion) |
|  |  |  | > 73.6 |  | 0.7 |  | hTβRIIshort(23-159/D110K)-hG2Fc (Fc fusion) |
|  | 2.05 | > 7.5 |  |  |  | 0.4 | hTβRIIshort(29-159)-hG2Fc (Fc fusion) |
|  | 2.51 | > 7.5 |  |  |  | 0.92 | hTβRIIshort(35-159)-hG2Fc (Fc fusion) |
